{"source": "patent US20240226230A1", "target": "phenylalanine and glycine rich nucleoporins (FG-Nups)", "experiment": "cell-based or functional assay", "data": [{"substance": "FLAG-KPNB1 H1-8^WT (from UniProt Q14974 1-361)", "values": [{"measurement": "cells in which the accumulation of TDP-43 and Nup62 in cytoplasmic GR aggregates is abolished", "value": "60 % of cells"}]}]}
